What was measured:
human CD33 variant Y49I = human CD33 variant Y49I (human, UniProt P20138 18-364); assay: flow cytometry, IgG on cells expressing the mutant
human CD33 variant P48T = human CD33 variant P48T (human, UniProt P20138 18-364); assay: flow cytometry, IgG on cells expressing the mutant
human CD33 variant Y49R = human CD33 variant Y49R (human, UniProt P20138 18-364); assay: flow cytometry, IgG on cells expressing the mutant
human CD33 variant K52S = human CD33 variant K52S (human, UniProt P20138 18-364); assay: flow cytometry, IgG on cells expressing the mutant
human CD33 variant M120V = human CD33 variant M120V (human, UniProt P20138 18-364); assay: flow cytometry, IgG on cells expressing the mutant
human CD33 variant P48I = human CD33 variant P48I (human, UniProt P20138 18-364); assay: flow cytometry, IgG on cells expressing the mutant
human CD33 variant I47P = human CD33 variant I47P (human, UniProt P20138 18-364); assay: flow cytometry, IgG on cells expressing the mutant
human CD33 variant V56R = human CD33 variant V56R (human, UniProt P20138 18-364); assay: flow cytometry, IgG on cells expressing the mutant
[1] = molecular target: human CD33 extracellular region F21S_W22R (human, UniProt P20138 23-259); assay: BLI Octet, IgG captured on AHC, CD33 analyte;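 also: CD33 variants and wild type run as analyte at 5, 50 and 500 nM, 700 s association then 1200 s dissociation, buffer-only reference subtracted, global 1:1 fit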
Protocol: (§1) Human CD33 wt and variants, were used as analyte at 3 different concentrations (500, 50 and 5 nM). Association of the analyte to the antibodies was monitored for 700 s and dissociation of the analyte from the antibodies was monitored for 1200 s. Reference subtraction was performed against buffer only wells. AHC tips were regenerated using 10 mM Glycine-HCl pH 1.7. Data were analyzed with Octet Data Analysis software HT 12.0. Data were fitted to a 1:1 binding model. Kinetic rates ka and kd and response signal were globally fitted.

[2] = molecular target: human CD33 extracellular region W22H (human, UniProt P20138 18-259); assay: BLI Octet, IgG captured on AHC, CD33 analyte;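 also: CD33 variants and wild type run as analyte at 5, 50 and 500 nM, 700 s association then 1200 s dissociation, buffer-only reference subtracted, global 1:1 fit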
Protocol: as §1

[3] = molecular target: human CD33 extracellular region W22R (human, UniProt P20138 18-259); assay: BLI Octet, IgG captured on AHC, CD33 analyte;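 also: CD33 variants and wild type run as analyte at 5, 50 and 500 nM, 700 s association then 1200 s dissociation, buffer-only reference subtracted, global 1:1 fit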
Protocol: as §1

[4] = molecular target: human CD33 extracellular region Y50H (human, UniProt P20138 18-259); assay: BLI Octet, IgG captured on AHC, CD33 analyte;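 also: CD33 variants and wild type run as analyte at 5, 50 and 500 nM, 700 s association then 1200 s dissociation, buffer-only reference subtracted, global 1:1 fit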
Protocol: as §1

[5] = molecular target: human CD33 extracellular region W22D (human, UniProt P20138 18-259); assay: BLI Octet, IgG captured on AHC, CD33 analyte
Protocol: as §1

[6] = molecular target: human CD33 extracellular region F21I (human, UniProt P20138 22-259); assay: BLI Octet, IgG captured on AHC, CD33 analyte
Protocol: as §1

[7] = molecular target: human CD33 extracellular region Q24R (human, UniProt P20138 18-259); assay: BLI Octet, IgG captured on AHC, CD33 analyte
Protocol: as §1

[8] = molecular target: human CD33 extracellular region N20D (human, UniProt P20138 21-259); assay: BLI Octet, IgG captured on AHC, CD33 analyte
Protocol: as §1

[9] = molecular target: human CD33 extracellular region N20H (human, UniProt P20138 21-259); assay: BLI Octet, IgG captured on AHC, CD33 analyte
Protocol: as §1

[10] = molecular target: human CD33 extracellular region Y50H_Y49H (human, UniProt P20138 18-259); assay: BLI Octet, IgG captured on AHC, CD33 analyte
Protocol: as §1

[11] = molecular target: human CD33 extracellular region F44S (human, UniProt P20138 18-259); assay: BLI Octet, IgG captured on AHC, CD33 analyte
Protocol: as §1

[12] = molecular target: human CD33 extracellular region W22E (human, UniProt P20138 18-259); assay: BLI Octet, IgG captured on AHC, CD33 analyte
Protocol: as §1

[13] = molecular target: human CD33 extracellular region F43S (human, UniProt P20138 18-259); assay: BLI Octet, IgG captured on AHC, CD33 analyte
Protocol: as §1

[14] = molecular target: T1, human CD33 extracellular region, wild type (human, UniProt P20138 18-259); assay: BLI Octet, IgG captured on AHC, CD33 analyte
T1 construct: also called WT; CD33 wt
Protocol: as §1

[15] = molecular target: human CD33 extracellular region H45Y (human, UniProt P20138 18-259); assay: BLI Octet, IgG captured on AHC, CD33 analyte
Protocol: as §1

[16] = molecular target: human CD33 extracellular region F21N (human, UniProt P20138 22-259); assay: BLI Octet, IgG captured on AHC, CD33 analyte
Protocol: as §1

[17] = molecular target: human CD33 extracellular region F21M (human, UniProt P20138 22-259); assay: BLI Octet, IgG captured on AHC, CD33 analyte
Protocol: as §1

[18] = molecular target: human CD33 extracellular region W22K (human, UniProt P20138 18-259); assay: BLI Octet, IgG captured on AHC, CD33 analyte
Protocol: as §1

[19] = molecular target: human CD33 extracellular region N20V (human, UniProt P20138 21-259); assay: BLI Octet, IgG captured on AHC, CD33 analyte
Protocol: as §1

[20] = molecular target: human CD33 extracellular region Y50K (human, UniProt P20138 18-259); assay: BLI Octet, IgG captured on AHC, CD33 analyte
Protocol: as §1

[21] = molecular target: human CD33 extracellular region Y50L (human, UniProt P20138 18-259); assay: BLI Octet, IgG captured on AHC, CD33 analyte
Protocol: as §1

[22] = molecular target: human CD33 extracellular region F21S (human, UniProt P20138 22-259); assay: BLI Octet, IgG captured on AHC, CD33 analyte
Protocol: as §1

[23] = molecular target: human CD33 extracellular region N20K (human, UniProt P20138 21-259); assay: BLI Octet, IgG captured on AHC, CD33 analyte
Protocol: as §1

[24] = molecular target: human CD33 extracellular region W22S (human, UniProt P20138 18-259); assay: BLI Octet, IgG captured on AHC, CD33 analyte
Sequence of human CD33 extracellular region W22S (P20138 other isoform, or with tags, fused parts or gaps W22S W22S): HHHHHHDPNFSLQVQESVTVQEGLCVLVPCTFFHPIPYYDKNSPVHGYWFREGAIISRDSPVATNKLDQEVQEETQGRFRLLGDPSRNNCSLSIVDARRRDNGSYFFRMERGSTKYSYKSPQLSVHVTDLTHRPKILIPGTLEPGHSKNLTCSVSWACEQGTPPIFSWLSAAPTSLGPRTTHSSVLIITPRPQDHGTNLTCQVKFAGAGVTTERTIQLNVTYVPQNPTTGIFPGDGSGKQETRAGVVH
Protocol: as §1

T1 sequence (P20138 other isoform, or with tags, fused parts or gaps): as the sequence (P20138 other isoform, or with tags, fused parts or gaps W22S W22S) above, with S11W counted along it
Sequence of human CD33 extracellular region F21I (P20138 other isoform, or with tags, fused parts or gaps F21I F21I): as the sequence (P20138 other isoform, or with tags, fused parts or gaps W22S W22S) above, with F10I, S11W counted along it
Sequence of human CD33 variant P48T (P20138 18-364 P48T limits assumed): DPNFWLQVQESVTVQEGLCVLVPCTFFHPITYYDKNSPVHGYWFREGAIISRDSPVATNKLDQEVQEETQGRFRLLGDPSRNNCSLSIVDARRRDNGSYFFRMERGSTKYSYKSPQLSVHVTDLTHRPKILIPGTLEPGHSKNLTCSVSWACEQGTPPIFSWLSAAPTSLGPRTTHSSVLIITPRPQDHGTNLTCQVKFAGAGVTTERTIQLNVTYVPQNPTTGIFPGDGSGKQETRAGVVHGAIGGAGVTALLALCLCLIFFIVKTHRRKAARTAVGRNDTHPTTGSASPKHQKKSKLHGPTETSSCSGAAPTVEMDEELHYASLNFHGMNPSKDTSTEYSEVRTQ
Sequence of human CD33 variant V56R (P20138 18-364 V56R limits assumed): as the sequence (P20138 18-364 P48T limits assumed) above, with T31P, V39R counted along it
Sequence of human CD33 extracellular region Y50H (P20138 other isoform, or with tags, fused parts or gaps Y50H Y50H): as the sequence (P20138 other isoform, or with tags, fused parts or gaps W22S W22S) above, with S11W, Y39H counted along it
Sequence of human CD33 extracellular region F21S (P20138 other isoform, or with tags, fused parts or gaps F21S F21S): as the sequence (P20138 other isoform, or with tags, fused parts or gaps W22S W22S) above, with F10S, S11W counted along it
Sequence of human CD33 variant M120V (P20138 18-364 M120V limits assumed): as the sequence (P20138 18-364 P48T limits assumed) above, with T31P, M103V counted along it
Sequence of human CD33 extracellular region N20D (P20138 other isoform, or with tags, fused parts or gaps N20D N20D): as the sequence (P20138 other isoform, or with tags, fused parts or gaps W22S W22S) above, with N9D, S11W counted along it
Sequence of human CD33 variant Y49R (P20138 18-364 Y49R limits assumed): as the sequence (P20138 18-364 P48T limits assumed) above, with T31P, Y32R counted along it
Sequence of human CD33 extracellular region H45Y (P20138 other isoform, or with tags, fused parts or gaps H45Y H45Y): as the sequence (P20138 other isoform, or with tags, fused parts or gaps W22S W22S) above, with S11W, H34Y counted along it
Sequence of human CD33 extracellular region F21S_W22R (P20138 other isoform, or with tags, fused parts or gaps F21S W22R F21S W22R): as the sequence (P20138 other isoform, or with tags, fused parts or gaps W22S W22S) above, with F10S, S11R counted along it
Sequence of human CD33 extracellular region Y50K (P20138 other isoform, or with tags, fused parts or gaps Y50K Y50K): as the sequence (P20138 other isoform, or with tags, fused parts or gaps W22S W22S) above, with S11W, Y39K counted along it
Sequence of human CD33 variant P48I (P20138 18-364 P48I limits assumed): as the sequence (P20138 18-364 P48T limits assumed) above, with T31I counted along it
Sequence of human CD33 extracellular region W22K (P20138 other isoform, or with tags, fused parts or gaps W22K W22K): as the sequence (P20138 other isoform, or with tags, fused parts or gaps W22S W22S) above, with S11K counted along it
Sequence of human CD33 extracellular region N20H (P20138 other isoform, or with tags, fused parts or gaps N20H N20H): as the sequence (P20138 other isoform, or with tags, fused parts or gaps W22S W22S) above, with N9H, S11W counted along it
Sequence of human CD33 extracellular region F21M (P20138 other isoform, or with tags, fused parts or gaps F21M F21M): as the sequence (P20138 other isoform, or with tags, fused parts or gaps W22S W22S) above, with F10M, S11W counted along it

Row | Mean % WT Binding (human CD33 variant Y49I) | Mean % WT Binding (human CD33 variant P48T) | Mean % WT Binding (human CD33 variant Y49R) | Mean % WT Binding (human CD33 variant K52S) | Mean % WT Binding (human CD33 variant M120V) | Mean % WT Binding (human CD33 variant P48I) | Mean % WT Binding (human CD33 variant I47P) | Mean % WT Binding (human CD33 variant V56R) | % WT binding [1] | % WT binding [2] | % WT binding [3] | % WT binding [4] | % WT binding [5] | % WT binding [6] | % WT binding [7] | % WT binding [8] | % WT binding [9] | % WT binding [10] | % WT binding [11] | % WT binding [12] | Binder | further results
1 | 94 % of WT | 11.7 % of WT | 55.7 % of WT | 85 % of WT | 100 % of WT | 31.9 % of WT | 49 % of WT | 99.4 % of WT |  |  |  |  |  |  |  |  |  |  |  |  | Refmab #4 (antibody, human IgG1, V domains shown, Tested in IgG format; human IgG1 Fc silent (PG-LALA)) VH: QVQLVQSGAEVKKPGESVKVSCKASGYTFTNYGMNWVKQAPGQGLEWMGWINTYTGEPTYADKFQGRVTMTTDTSTSTAYMEIRNLGGDDTAVYYCARWSWSDGYYVYFDYWGQGTSVTVSS VL: DIVMTQSPDSLTVSLGERTTINCKSSQSVLDSSTNKNSLAWYQQKPGQPPKLLLSWASTRESGIPDRFSGSGSGTDFTLTIDSPQPEDSATYYCQQSAHFPITFGQGTRLEIK | 
2 |  |  |  |  |  |  |  |  | 110% | 112% | 82.8% | 28% | 104% | 84.2% | 102% | 91.3% | 104% | 0% | 84.6% | 82.8% | Refmab #4 (antibody, human IgG1, V domains shown) VH: QVQLVQSGAEVKKPGESVKVSCKASGYTFTNYGMNWVKQAPGQGLEWMGWINTYTGEPTYADKFQGRVTMTTDTSTSTAYMEIRNLGGDDTAVYYCARWSWSDGYYVYFDYWGQGTSVTVSS VL: DIVMTQSPDSLTVSLGERTTINCKSSQSVLDSSTNKNSLAWYQQKPGQPPKLLLSWASTRESGIPDRFSGSGSGTDFTLTIDSPQPEDSATYYCQQSAHFPITFGQGTRLEIK | % WT binding [13]: 80%; % WT binding [14]: 100%; % WT binding [15]: 69.3%; % WT binding [16]: 83%; % WT binding [17]: 80%; % WT binding [18]: 113%; % WT binding [19]: 96.5%; % WT binding [20]: 0%; % WT binding [21]: 25.3%; % WT binding [22]: 78.3%; % WT binding [23]: 102%; % WT binding [24]: 93%
3 | 94.3 % of WT | 71.3 % of WT | 44.9 % of WT | 113 % of WT | 95.5 % of WT | 81.9 % of WT | 0.7 % of WT | 107 % of WT |  |  |  |  |  |  |  |  |  |  |  |  | Refmab #2 (antibody, human IgG1, V domains shown, Tested in IgG format; human IgG1 Fc silent (PG-LALA)) VH: QVQLVQSGAEVKKPGSSVKVSCKASGGTFSDYAISWVRQAPGQGLEWMGRIIPILGVADYAQKFQGRVTITADKSTRTAYMELSSLRSEDTAVYYCARNWADAFDIWGQGTMVTVSS VL: DIQLTQSPSSLSASVGDRVTITCRASQGISSVLAWYQQKPGKAPKLLIYDASSLESGVPSRFSGSGSGTDFTLTISSLQPEDFATYYCQQFDSSITFGQGTKLEIK | 
4 | 109 % of WT | 102 % of WT | 79 % of WT | 96.8 % of WT | 51.1 % of WT | 122 % of WT | 2.8 % of WT | 97.7 % of WT |  |  |  |  |  |  |  |  |  |  |  |  | Refmab #3 (antibody, human IgG1, V domains shown, Tested in IgG format; human IgG1 Fc silent (PG-LALA)) VH: QVQLVQSGAEVKKPGSSVKVSCKASGYTFTDYNMHWVRQAPGQGLEWIGYIYPYNGGTGYNQKFKSKATITADESTNTAYMELSSLRSEDTAVYYCARGRPAMDYWGQGTLVTVSS VL: DIQMTQSPSSLSASVGDRVTITCRASESVDNYGISFMNWFQQKPGKAPKLLIYAASNQGSGVPSRFSGSGSGTDFTLTISSLQPDDFATYYCQQSKEVPWTFGQGTKVEIK | 
5 |  |  |  |  |  |  |  |  | 0% | 55% | 0% | 111% | 0% | 0% | 88.4% | 0% | 0% | 84.4% | 39% | 0% | Refmab #3 (antibody, human IgG1, V domains shown) VH: QVQLVQSGAEVKKPGSSVKVSCKASGYTFTDYNMHWVRQAPGQGLEWIGYIYPYNGGTGYNQKFKSKATITADESTNTAYMELSSLRSEDTAVYYCARGRPAMDYWGQGTLVTVSS VL: DIQMTQSPSSLSASVGDRVTITCRASESVDNYGISFMNWFQQKPGKAPKLLIYAASNQGSGVPSRFSGSGSGTDFTLTISSLQPDDFATYYCQQSKEVPWTFGQGTKVEIK | % WT binding [13]: 64.8%; % WT binding [14]: 100%; % WT binding [15]: 35.1%; % WT binding [16]: 0%; % WT binding [17]: 0%; % WT binding [18]: 0%; % WT binding [19]: 6.34%; % WT binding [20]: 122%; % WT binding [21]: 74.4%; % WT binding [22]: 0%; % WT binding [23]: 0%; % WT binding [24]: 20.1%
6 | 109 % of WT | 106 % of WT | 87.1 % of WT | 84.3 % of WT | 98.7 % of WT | 107 % of WT | 84.5 % of WT | 98.5 % of WT |  |  |  |  |  |  |  |  |  |  |  |  | Refmab #1 (antibody, human IgG1, V domains shown, Tested in IgG format; human IgG1 (Absolute Antibody hP67.6, Cat. No. Ab00283-10.0); also called hP67.6) VH: EVQLVQSGAEVKKPGSSVKVSCKASGYTITDSNIHWVRQAPGQSLEWIGYIYPYNGGTDYNQKFKNRATLTVDNPTNTAYMELSSLRSEDTAFYYCVNGNPWLAYWGQGTLVTVSS VL: DIQLTQSPSTLSASVGDRVTITCRASESLDNYGIRFLTWFQQKPGKAPKLLMYAASNQGSGVPSRFSGSGSGTEFTLTISSLQPDDFATYYCQQTKEVPWSFGQGTKVEVK | 
7 |  |  |  |  |  |  |  |  | 0% | 106% | 26.4% | 104% | 0% | 0% | 67.9% | 0% | 67% | 76.4% | 63.9% | 26.4% | Refmab #1 (antibody, human IgG1, V domains shown, also called hP67.6; Absolute Antibody Cat. No. Ab00283-10.0) VH: EVQLVQSGAEVKKPGSSVKVSCKASGYTITDSNIHWVRQAPGQSLEWIGYIYPYNGGTDYNQKFKNRATLTVDNPTNTAYMELSSLRSEDTAFYYCVNGNPWLAYWGQGTLVTVSS VL: DIQLTQSPSTLSASVGDRVTITCRASESLDNYGIRFLTWFQQKPGKAPKLLMYAASNQGSGVPSRFSGSGSGTEFTLTISSLQPDDFATYYCQQTKEVPWSFGQGTKVEVK | % WT binding [13]: 104%; % WT binding [14]: 100%; % WT binding [15]: 55%; % WT binding [16]: 0%; % WT binding [17]: 0%; % WT binding [18]: 0%; % WT binding [19]: 18.6%; % WT binding [20]: 101%; % WT binding [21]: 76.1%; % WT binding [22]: 0%; % WT binding [23]: 0%; % WT binding [24]: 45.9%
